Test [1] deals with VEGFR-3. Kind of test: Affinity precipitation assay, VEGFR-3. The conditions noted are these: 0.1 M sugar. The test is classed as binding, human. As for the experimental part:
(§1) Five mg of plant lectins (Vector Labs) and galectins were conjugated to 330 mg of Pierce® NHS-activated agarose dry resin in accordance with the manufacturer's instructions (Thermo Scientific). Primary LECs (Lonza) were lysed in Triton lysis buffer (20 mM Tris-HCl, pH 7.4; 150 mM NaCl; 0.5% Triton X-100 with protease inhibitor cocktail). LEC lysates (250 μg in 500 μL lysis buffer supplemented with 10 mM MgCl2) were incubated with 40 μL (50% slurry) of agarose-conjugated lectins (4° C., overnight). Beads were pelleted by centrifugation at 3000 rpm for 1 min. Non-specific binding proteins were removed by washing the beads with Triton lysis buffer once and PBS twice. Supernatants were discarded; bound proteins were eluted by boiling the beads with 20 μL of 2× Laemmli sample buffer for 7 min, and examined by western blotting.
Next, a series of examples were performed to determine whether VEGF-C-induced lymphangiogenesis is dependent on Gal-8. To determine whether VEGFR-3 is a Gal-8-binding protein, LEC lysates were incubated with Gal-8-conjugated agarose beads in the presence or absence of 0.1 M of lactose (an inhibiting sugar) or sucrose (a non-inhibiting sugar). Bound proteins were examined and were compared to total cell lysates (input) by western blot using anti-VEGFR-3 antibody. Three forms of VEGFR-3 (125 kDa, 175 kDa and 195 kDa) were detected in total cell lysates (FIG. 5A) (Bando, H., et al. 2004. Int J Cancer 111:184-191.). […] Having shown that Gal-8 binds to VEGFR-3 in LECs and that the carbohydrate-binding activity of Gal-8 is required for the synergistic effect of Gal-8 on VEGF-C-induced LEC sprouting, it was of interest to determine whether VEGFR-3 bears 3′-sialylated glycans.

In test [2] the target is T1, PDPN (Homo sapiens, UniProt Q86YL7).
T1 construct: Within the whole cell lysate, an anti-PDPN-reactive 43-kDa component was detected; host or cells: primary lymphatic endothelial cells (LECs)
T1 sequence (Q86YL7 23-162): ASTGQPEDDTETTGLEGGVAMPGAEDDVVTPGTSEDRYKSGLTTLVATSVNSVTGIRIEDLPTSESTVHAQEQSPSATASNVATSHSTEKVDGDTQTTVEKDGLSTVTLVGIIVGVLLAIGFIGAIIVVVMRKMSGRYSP
Briefly: Affinity precipitation assay, PDPN. The format is binding. The note with it: 0.1 M sugar. How it is done:
as §1
To determine whether PDPN binds to Gal-8 in a carbohydrate-dependent manner, LEC lysates were incubated with Gal-8-conjugated to agarose beads in the presence or absence of 0.1 M of lactose (an inhibiting sugar) or sucrose (a non-inhibiting sugar). Bound proteins were examined with total cell lysates (input) by western blot using an anti-PDPN antibody. To determine specificity of PDPN binding to Gal-8, LEC lysates were also incubated with agarose beads conjugated to Gal-1, Gal-3 and Gal-7. Within the whole cell lysate, an anti-PDPN-reactive 43-kDa component was detected (FIG. 7A).

Test [3] deals with Gal-8-induced LEC sprouting. Kind of test: LEC sprouting assay: Gal-8-induced sprouting with inhibitors or knockdown. The test is classed as cell-based, human. The conditions noted are these: Gal-8 0.75 μM, 24 h; TDG 20 mM; LY294002 20 μM; U0126 20 μM; PD0325901 1 μM; Avastin 10 μg/ml; Obtustatin 4 μM; antibodies 20 μg/ml; siRNA-transfected LECs. As for the experimental part: LEC spheroids were generated by seeding primary LECs at passage 4 or 5 in each well of 384-well hanging-drop plates (3D Biomatrix) in complete EGM-2 MV medium containing 0.25% methyl cellulose according to the manufacturer's instructions (750 cells/well). After 18 hours, LEC spheroids were collected, resuspended in serum-free EBM-2 basal medium, and mixed with collagen solution (PureCol collagen, Advanced BioMatrix, 2.2 mg/ml in M199 medium, pH adjusted to 7.4 with NaHCO3 and NaOH). Aliquots of the LEC spheroid/collagen mixture (250 μl/well of 48-well plate) were incubated in the presence or absence of various test agents for 24 hr. At the end of the incubation period, spheroids were stained with Calcein AM (Invitrogen, 1 μg/mL, 37° C., and 30 min). Fluorescent images were acquired using the EVOS FL cell imaging system, pixels were inverted for better visualization and cumulative length of each sprout was calculated. Results were expressed as fold change compared to corresponding controls. […] Test agents used included thiodigalactoside (10 to 50 mM, Carbosynth), 3′-sialyl lactose (2 to 10 mM, Carbosynth), 6′-sialyl lactose (2 to 10 mM, Carbosynth), LY294002 (20 μM, Abeam), U0126 (20 μM, Abeam), PD0325901 (1 μM, Selleckchem), human VEGFR-3-Fc chimera (10 μg/ml, R&D), human VEGFR-2-Fc chimera (10 μg/ml, R&D), Avastin (10 μg/ml, bevacizumab, Genentech/Roche), human control IgG (10 μg/ml, Southern Biotech), anti-human podoplanin functional grade antibody (10 μg/ml, eBioscience), and rat IgG2a κ isotype control functional grade antibody (10 μg/ml, eBioscience).
To determine the role of these pathways on Gal-8-induced lymphangiogenesis, LEC spheroids were stimulated with Gal-8 (0.75 μM) in the presence or absence of PI3K inhibitor (LY294002, 20 μM) and two different MEK inhibitors (U0126, 20 μM; PD0325901, 1 μM). After overnight treatment with Gal-8, accumulated sprout lengths were quantified.

The subject of test [4] is VEGF-A-induced LEC sprouting. Briefly: LEC sprouting assay: VEGF-A-induced sprouting. The format is cell-based, human. The conditions noted are these: VEGF-A 50 ng/ml; 10 μg/ml. How it is done: LEC spheroids were generated by seeding primary LECs at passage 4 or 5 in each well of 384-well hanging-drop plates (3D Biomatrix) in complete EGM-2 MV medium containing 0.25% methyl cellulose according to the manufacturer's instructions (750 cells/well). After 18 hours, LEC spheroids were collected, resuspended in serum-free EBM-2 basal medium, and mixed with collagen solution (PureCol collagen, Advanced BioMatrix, 2.2 mg/ml in M199 medium, pH adjusted to 7.4 with NaHCO3 and NaOH). Aliquots of the LEC spheroid/collagen mixture (250 μl/well of 48-well plate) were incubated in the presence or absence of various test agents for 24 hr. […] Fluorescent images were acquired using the EVOS FL cell imaging system, pixels were inverted for better visualization and cumulative length of each sprout was calculated. Results were expressed as fold change compared to corresponding controls. […]
In addition, investigations were performed to determine whether VEGF-A/VEGFR-2 pathway, which also promotes lymphangiogenesis, is involved in Gal-8-mediated lymphangiogenesis. LEC spheroids were stimulated with Gal-8 (0.75 μM) in the presence or absence of VEGFR-3-Fc, VEGFR-2-Fc (10 μg/ml), Avastin (bevacizumab) (10 μg/ml) or control IgG (10 μg/ml) for 24 hours and then accumulated sprout lengths were quantified. […]

In the next test the test system is mouse corneas. Kind of test: Corneal mouse micropocket lymphangiogenesis assay. The test is classed as in vivo. The note with it: for mean lymphatic vessel areas: seven days. As for the experimental part:
The corneal micropocket lymphangiogenesis assay was performed using implants containing a test agent, hydron (polyhydroxylmethylmethacrylate), and sucralfate (Cao, R., et al. 2011. Nat Protoc 6:817-826; Rogers, M. S., et al. 2007. Nat Protoc 2:2545-2550). Test agents included full-length Gal-8 (40-320 ng/pellet) and VEGF-C (160 ng/pellet). Implants containing hydron and sucralfate alone served as negative controls. The mice were anesthetized by intraperitoneal injection of a mixture of ketamine (90-120 mg/kg) and xylazine (10 mg/kg). The eyes were topically anesthetized with proparacaine and were gently proptosed (forwardly displaced) with forceps. Using a corneal blade and a stereoscope, intrastromal linear keratotomy was performed about 2 mm from the limbus. Using a von Graefe knife (Miltex), a pocket was extended towards the limbus, and the pellet was maneuvered into the pocket. The wound was coated with a veterinary ophthalmic ointment (Akorn) to prevent infection. Mouse corneas were harvested 7 days after pellet implantation, fixed in 4% paraformaldehyde/PBS (1 hour at 4° C.), washed with PBS, and fixed again in iced acetone (15 min at −20° C.). To quantitate the extent of lymphangiogenesis in Prox-1-EGFP reporter mice, flat mounts of the dissected corneas were evaluated by fluorescence microscopy. Fluorescent images were acquired by EVOS FL cell imaging system (Invitrogen), and vessel areas were calculated using the formula (Rogers, M. S., et al. 2007. Nat Protoc 2:2545-2550): vessel area=pellet distance×vessel length×clock hours×[…]. To quantitate the extent of lymphangiogenesis in WT and PDPN-deficient mice, corneas were stained with eFluor 570-anti-mouse LYVE-1 (clone ALY7, eBioScience, and 1:75) in 10% goat serum/0.2% Triton X-100/PBS overnight, 4° C. After several washes with 0.2% Triton X-100/PBS, the corneas were flattened and mounted with VECTASHIELD mounting medium (Vector Laboratories) and evaluated by fluorescence microscopy. In some examples, for comparisons, corneas were stained with Alexa Fluor® 488-anti-mouse CD31 (clone MEC13.3, 1:100, BioLegend) to visualize blood vessels.

Test [5] has as its system VEGFR-3. Briefly: Cell surface expression of VEGFR-3 by flow cytometry. The format is cell-based, human. The note with it: Gal-8 0.2 μM or VEGF-C 50 ng/ml. As for the experimental part:
(§2) Primary LECs were serum-starved overnight in basal EBM-2 medium. The cells were incubated with or without VEGF-C (50 ng/ml, PeproTech) or Gal-8 (0.2 μM) in serum-free EBM-2 medium for 10 and 30 min. At the end of the incubation period, cells were lifted with StemPro® Accutase® cell dissociation reagent (Invitrogen), washed with PBS and fixed with 4% paraformaldehyde/PBS on ice for 10 min, and were then stained using rat anti-human PDPN (1:500, BioLegend) and mouse anti-human VEGFR-3 (clone 9D9F9) (1:100, BioLegend) primary antibodies in cell staining buffer (BioLegend, 45 min on ice) and Alexa Fluor® 488 donkey anti-rat and Alexa Fluor® 647 anti-mouse secondary antibodies (1:1000, Invitrogen, 30 min on ice). For negative control, the primary antibodies were omitted. The stained cells were fixed with 2% paraformaldehyde/PBS, analyzed with BD FACSCalibur, and the mean fluorescence intensity of VEGFR-3 and PDPN were quantified with the FlowJo software (version 9.5.2).
(In general: A flow cytometer gives signals particle by particle.)

Test [6] deals with PDPN. Kind of test: Cell surface expression of PDPN by flow cytometry. The test is classed as cell-based, human. The conditions noted are these: 30 min post-treatment; VEGF-C 50 ng/ml. As for the experimental part: as §2

We go through 3 molecules from patent US10226509B2, “Lymphangiogenesis inhibitors for cancer and for graft survival” (TUFTS UNIVERSITY, priority 2014, dated 2019).

Entries after “also recorded” stand apart in the source; their conditions may differ.

Regarding `OC[C@H]1O[C@@](CO)(O[C@H]2O[C@H](CO)[C@@H](O)[C@H](O)[C@H]2O)[C@@H](O)[C@@H]1O` [sucrose, reference compound], the “inhibition of binding of VEGFR-3 to Gal-8” value in the test with VEGFR-3 [1] was “not sucrose, a noncompeting sugar”. Further, the “inhibition of binding of PDPN to Gal-8” value on PDPN [2] is “not by sucrose”.
In the case of “Avastin: an antibody targeted against VEGF-A”, the “effect on Gal-8-induced LEC sprouting (in words)” value in test [3] is listed as “had no effect”. The “effect on VEGF-A-induced LEC sprouting (in words)” value in test [4] is on record as “almost completely abolished”.

B1: VEGF-C: lymphangiogenic growth factor used as positive control (protein)
chain: AHYNTEILKSIDNEWRKTQCMPREVCIDVGKEFGVATNTFFKPPCVSVYRCGGCCNSEGLQCMNTSTSYLSKTLFEITVPLSQGPKPVTISFANHTSCRCMSKLDVYRQVHSIIRR
In the case of B1, in the test on mouse corneas (160 ng pellet, one week), the “extent of vessel formation in galectin-8 KO mice compared to WT” value is listed as “significantly reduced”. Moreover, the “mean lymphatic vessel areas” value in the test with mouse corneas (PDPN KO mice, 160 ng pellet) is 0.67 mm^2; in the test with mouse corneas (WT mice, 160 ng pellet), 1.35 mm^2. The “lymphangiogenesis induced by pellet in cornea (in words)” value in the test with mouse corneas (one week after implantation, Gal-8 40-320 ng/pellet, VEGF-C 160 ng, WT or Prox1-EGFP mice) is “markedly induced both hemangiogenesis and lymphangiogenesis; also recorded: induce robust growth of lymphatic vessels”. The “decrease of cell surface expression of VEGFR-3” value with VEGFR-3 [5] was “about 40%”. For the same molecule, in the test with PDPN [6], the “decrease of cell surface expression of PDPN” value was “about 5%”.
